The DeepSol protein solubility set

assay: soluble on expression in E. coli; label from the status in PepcDB or PDB records

Sequence | soluble on expression in E. coli
MSHSAKKALLPLLAVATLAGLAGCATETSTALPVQQVESVNRPYSGVRSPIAVGKFDNRSSYMRGIFSDGVDRLGGQAKTILITHLQQTNRFNVLDRDNMSEIQQEAAIKGQAQRLKGADYVVTGDVTEFGRKEVGDRQLFGILGRGKSQIAYAKVALNIVNISTSEVVYSTQGAGEYALSNREVIGFGGTASYDSTLNGKVLDLAMREAVNKLVNAVDSGAWKPQNQ | not soluble
MSIAEFAYKEKPETLVLFDVDGTLTPARLTVSEEVRKTLAKLRNKCCIGFVGGSDLSKQLEQLGPNVLDEFDYSFSENGLTAYRLGKELASQSFINWLGEEKYNKLAVFILRYLSEIDLPKRRGTFLEFRNGMINVSPIGRNASTEERNEFERYDKEHQIRAKFVEALKKEFPDYGLTFSIGGQISFDVFPAGWDKTYCLQHVEKDGFKEIHFFGDKTMVGGNDYEIFVDERTIGHSVQSPDDTVKILTELFNL | soluble
MSIIKKIVFKRFNSTLKKTALHDLHVSLGGTMVPYAGYSMPVLYKGQTHIESHNWTRTNAGLFDVSHMLQSKLSGPHSVKFLQRVTPTDFNALPVGSGTLSVLLNPQGGVVDDTIITKENDDNEFYIVTNAGCAERDTEFFHDELQNGSTLDCQWKIIEGRSLLALQGPKAKDVLEPLLSKTAPGKDLKELFFGQRHEFALKDGSLVQIARGGYTGEDGFEISIANEKAVEFAEQLLANPVMKPIGLAARDSLRLEAGMCLYGHELDESITPVEAALNWVISKSRRDLVDQKYWFNGYAKIMDQLNNKTYSKVRVGFKYLKKGPAARNGVKIFLPDAETEVGLVTSGSASPTLNNINIGQAYVQKGYHKKGTKLLVQVRNKFYPIELAKMPLVPTHYYKQ | not soluble
MSILRIHAREIFDSRGNPTVEVDLYTAKGLFRAAVPSGASTGIYEALELRDNDKTRFMGKGVSQAVEHINKTIAPALVSKKVNVVEQEKIDKLMIEMDGTENKSKFGANAILGVSLAVCKAGAVEKGVPLYRHIADLAGNPEVILPVPAFNVINGGSHAGNKLAMQEFMILPVGASSFREAMRIGAEVYHNLKNVIKEKYGKDATNVGDEGGFAPNILENKEALELLKTAIAKAGYTDQVVIGMDVAASEFYRSGKYDLDFKSPDDPSRYITPDQLADLYKSFVQNYPVVSIEDPFDQDDWGAWQKFTASAGIQVVGDDLTVTNPKRIAKAASEKSCNCLLLKVNQIGSVTESLQACKLAQSNGWGVMVSHRSGETEDTFIADLVVGLCTGQIKTGAPCRSERLAKYNQILRIEEELGSKAKFAGRSFRNPLAK | soluble
MSIQNISFLGAGSIAEAIIGGLLHANVVKGEQITVSNRSNETRLQELHKKYGVKGTHNKKELLTDANILFLAMKPKDVAEALTPFKEYINNNVLIISLLAGVSTDSIRKLLQKDVPIIRAMPNTSAAILKSATAISPSKHATAEHIRTATSLFETIGLVSVVEEEDMHAVTALSGSGPAYIYYVVEAMEEAAKKIGLKEDVAKSLILQTMIGAAEMLKASDKHPSILRKEITSPGGTTEAGIEVLQEHKFQQALISCITQATKRSHNLGKTLEQLTKEKLEHHHHHH | soluble
MSIRIIPQDELGSSEKRTADMIPPLLFPRLKNLYNRRAERLRELAENNPLGDYLRFAALIAHAQKVVLYDHPLEMDLTARIKEASAQGKPPLDIHVLPRDKHWQKLLMALIAELKPEMSGPALAVIENLEKASTQELEDMASALFASDFSSVSSDKAPFIWAALSLYWAQMANLIPGKARAEYGEQRQYCPVCGSMPVSSMVQIGTTQGLRYLHCNLCETEWHVVRVKCSNCEQSGKLHYWSLDDEQAAIKAESCDDCGTYLKILYQEKEPKVEAVADDLASLVLDARMEQEGYARSSINPFLFPGEGE | not soluble
MSIRILPENEIKPSASAFEIPPLLFANPKNLYTRRAKRLRELAKNNPLRDYLEFAAHLVDIQLTLLETAPIGNYAEKLTAYLTENQGQKPLNKQQFARDEKWLELLLALIKQCKPYATGAILTTLEFLEKASYAELNNLADHLLNERYEQVSPDQSVFIWLALSLYWTQLAQQLPRHTQAEIGERHTCPVCGSAPITSVIHLDKTQGLRYLHCALCESEWNMTRAQCSNCDESGDLNYWSFDTVEAPIKAESCGDCHSYLKVLYQEKDPYVEPLADDLASLMLDIEMEQKGFVRSGLNPFLFSIE | not soluble
MSKAAKKKSSKKRSGSEAAQFDQKTIQEFKEAFGIMDQNKDGIIDKSDLKDLYASMGQIAPDSQIDAMIKEASGPINFTVFLTLFGERLTGTDPEATIVGAFAMFDKKDCGKIKEDDLIKILQNKRGEPLDEDEVKAMYKGKPPIEGGEVDYKAFAHLITTGAQDELASA | not soluble
